Measured values taken from publication PMC6553876 (PLoS Pathogens, 2019).

Target: T1, DEN4-80E (Dengue virus type 4, strain H241 …, UniProt Q58HT7)
T1 construct: Envelope (E) protein of dengue virus serotype 4, strain H241, truncated form: 80% of the N-terminal of the E protein; also called DEN-80E of DENV4; truncated envelope protein of DENV4; source: recombinant E protein, component of the tetravalent dengue subunit vaccine V180 (Merck and Co. Inc.)
Test: BLI; Octet RED96 epitope binning: first mAb (30 ug/ml) captured on protein A sensor for 600 s, blocking antibody (200 ug/ml) 300 s, DEN4-80E loaded at 30 ug/ml for 300 s, then second mAb (d462, 5H2, d559, d182)
Conditions: both partners purified

T1 sequence (Q58HT7 whole entry, looked up, the tested form may be a part): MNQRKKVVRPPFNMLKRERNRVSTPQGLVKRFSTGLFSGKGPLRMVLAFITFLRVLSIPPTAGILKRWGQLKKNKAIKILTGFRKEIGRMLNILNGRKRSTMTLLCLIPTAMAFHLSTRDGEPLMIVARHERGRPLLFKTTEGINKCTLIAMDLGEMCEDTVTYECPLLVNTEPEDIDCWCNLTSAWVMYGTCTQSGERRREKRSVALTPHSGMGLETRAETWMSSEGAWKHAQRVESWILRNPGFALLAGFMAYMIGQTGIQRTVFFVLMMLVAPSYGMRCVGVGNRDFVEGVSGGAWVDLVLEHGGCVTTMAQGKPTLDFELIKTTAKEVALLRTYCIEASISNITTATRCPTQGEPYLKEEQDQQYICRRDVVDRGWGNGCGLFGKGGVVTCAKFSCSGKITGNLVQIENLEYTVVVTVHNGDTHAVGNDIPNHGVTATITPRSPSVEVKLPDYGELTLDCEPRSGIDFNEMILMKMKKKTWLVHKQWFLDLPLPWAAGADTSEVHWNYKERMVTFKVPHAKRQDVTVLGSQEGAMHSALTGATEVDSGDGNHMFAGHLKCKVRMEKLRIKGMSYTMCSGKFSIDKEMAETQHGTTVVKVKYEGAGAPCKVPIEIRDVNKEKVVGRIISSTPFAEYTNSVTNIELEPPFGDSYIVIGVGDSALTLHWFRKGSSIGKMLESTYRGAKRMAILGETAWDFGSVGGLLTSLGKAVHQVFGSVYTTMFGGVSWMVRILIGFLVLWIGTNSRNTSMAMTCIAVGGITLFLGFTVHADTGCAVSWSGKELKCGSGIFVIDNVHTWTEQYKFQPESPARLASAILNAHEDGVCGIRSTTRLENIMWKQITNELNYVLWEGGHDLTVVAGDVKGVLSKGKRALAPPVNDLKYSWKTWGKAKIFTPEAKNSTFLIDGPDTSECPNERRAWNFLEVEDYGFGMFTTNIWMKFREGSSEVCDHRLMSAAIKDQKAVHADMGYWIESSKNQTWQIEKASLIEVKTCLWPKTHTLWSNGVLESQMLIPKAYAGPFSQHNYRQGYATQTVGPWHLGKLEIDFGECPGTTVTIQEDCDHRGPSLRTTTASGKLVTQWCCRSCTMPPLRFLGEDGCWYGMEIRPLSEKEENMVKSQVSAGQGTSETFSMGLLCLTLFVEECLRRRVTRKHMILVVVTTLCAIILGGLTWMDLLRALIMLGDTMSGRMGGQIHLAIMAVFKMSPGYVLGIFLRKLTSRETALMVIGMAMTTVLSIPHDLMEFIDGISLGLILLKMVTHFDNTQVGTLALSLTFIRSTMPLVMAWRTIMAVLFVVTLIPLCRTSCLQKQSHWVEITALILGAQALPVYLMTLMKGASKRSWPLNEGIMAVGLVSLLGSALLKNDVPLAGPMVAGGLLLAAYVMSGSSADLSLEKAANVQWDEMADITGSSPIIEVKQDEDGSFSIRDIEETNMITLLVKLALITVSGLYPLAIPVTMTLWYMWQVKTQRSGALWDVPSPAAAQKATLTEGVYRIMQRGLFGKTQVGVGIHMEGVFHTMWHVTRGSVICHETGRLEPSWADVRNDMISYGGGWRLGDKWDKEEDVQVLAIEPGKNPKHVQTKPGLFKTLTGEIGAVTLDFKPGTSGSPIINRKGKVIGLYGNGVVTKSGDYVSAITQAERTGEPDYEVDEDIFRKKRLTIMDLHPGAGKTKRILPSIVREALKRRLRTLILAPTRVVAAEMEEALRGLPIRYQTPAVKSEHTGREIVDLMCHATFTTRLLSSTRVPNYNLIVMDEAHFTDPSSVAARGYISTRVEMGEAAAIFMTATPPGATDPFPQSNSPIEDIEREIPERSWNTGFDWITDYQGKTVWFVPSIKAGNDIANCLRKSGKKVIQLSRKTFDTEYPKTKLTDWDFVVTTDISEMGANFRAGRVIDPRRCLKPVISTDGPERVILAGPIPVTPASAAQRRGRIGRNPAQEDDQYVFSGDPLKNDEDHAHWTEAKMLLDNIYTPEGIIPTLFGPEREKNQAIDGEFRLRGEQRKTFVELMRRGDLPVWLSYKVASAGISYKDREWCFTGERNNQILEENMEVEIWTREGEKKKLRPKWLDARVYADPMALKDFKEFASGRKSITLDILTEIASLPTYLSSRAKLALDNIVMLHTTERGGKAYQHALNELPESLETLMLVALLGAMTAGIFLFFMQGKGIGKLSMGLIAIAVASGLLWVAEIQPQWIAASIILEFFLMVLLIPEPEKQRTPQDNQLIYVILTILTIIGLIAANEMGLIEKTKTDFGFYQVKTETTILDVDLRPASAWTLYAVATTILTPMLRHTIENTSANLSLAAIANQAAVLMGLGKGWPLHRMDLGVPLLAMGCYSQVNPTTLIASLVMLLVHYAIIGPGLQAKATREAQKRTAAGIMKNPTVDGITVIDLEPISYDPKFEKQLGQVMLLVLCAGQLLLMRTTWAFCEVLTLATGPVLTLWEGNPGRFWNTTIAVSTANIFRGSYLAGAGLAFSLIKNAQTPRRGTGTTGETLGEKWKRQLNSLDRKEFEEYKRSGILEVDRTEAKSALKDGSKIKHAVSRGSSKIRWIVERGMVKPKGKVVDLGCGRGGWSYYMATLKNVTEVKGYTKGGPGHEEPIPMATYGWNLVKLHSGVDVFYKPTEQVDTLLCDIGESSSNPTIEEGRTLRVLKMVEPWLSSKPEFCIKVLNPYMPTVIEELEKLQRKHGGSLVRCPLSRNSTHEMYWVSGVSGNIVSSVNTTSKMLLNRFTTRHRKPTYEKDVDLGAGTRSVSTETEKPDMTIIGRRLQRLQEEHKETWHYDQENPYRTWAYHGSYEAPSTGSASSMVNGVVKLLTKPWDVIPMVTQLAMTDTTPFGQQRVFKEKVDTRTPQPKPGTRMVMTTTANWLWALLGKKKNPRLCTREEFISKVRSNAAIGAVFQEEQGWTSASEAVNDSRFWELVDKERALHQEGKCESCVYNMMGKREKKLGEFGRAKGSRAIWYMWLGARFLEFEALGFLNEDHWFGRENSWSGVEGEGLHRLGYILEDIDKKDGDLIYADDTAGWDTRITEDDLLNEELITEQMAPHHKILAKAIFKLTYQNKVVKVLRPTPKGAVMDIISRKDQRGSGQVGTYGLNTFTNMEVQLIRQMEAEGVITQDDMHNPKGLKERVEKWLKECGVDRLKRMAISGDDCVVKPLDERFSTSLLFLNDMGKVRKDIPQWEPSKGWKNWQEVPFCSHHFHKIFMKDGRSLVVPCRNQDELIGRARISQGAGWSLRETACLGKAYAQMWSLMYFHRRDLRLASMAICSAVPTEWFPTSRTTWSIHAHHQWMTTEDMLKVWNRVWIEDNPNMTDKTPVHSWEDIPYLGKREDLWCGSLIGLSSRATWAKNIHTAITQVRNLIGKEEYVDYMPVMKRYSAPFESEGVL

B1: chimpanzee antibody 5H2 (antibody, V domains shown)
VH: EVQLLESGPGLVKPSETLSLTCTVSGGSISDFYWSWLRQSPGKGLEWIGYAHSRVSAYYNPSLKSRVTISVDTSKNQISLRLSAVTAADTALYYCARQGTGTTGVSEDSFDLWGQGTKVIVSL
VL: ELQMTQSPSSLSASVGDRVTITCRASQDISIRLNWYQQKPGKAPKLLIYDASTLESGVPSRFSGSGSGTDFTLTISSLQPEDFATYYCQQFNSYPLTFGGGTKVEIK
notes: also called mAb 5H2
B1: binds.
